Data on one molecule can be found in article PMC7611325 (Molecular cell, 2021).

The target in the assay is PAF1c (Polymerase II associated factor 1 complex; CTR9, Leo1, Paf1, CDC73, WDR61) (UniProt Q6PD62;Q8WVC0;Q8N7H5;Q6P1J9;Q9GZS3). Kind of assay: pull-down.

B1: GST-MYC^1-163 (glutathione-S-transferase fusion protein that encompasses amino acids 1 to 163 of human MYC) (domain or fragment)
chain: MPLNVSFTNRNYDLDYDSVQPYFYCDEEENFYQQQQQSELQPPAPSEDIWKKFELLPTPPLSPSRRSGLCSPSYVAVTPFSLRGDNDGGGGSFSTADQLEMVTELLGGDMVNQSFICDPDDETFIKNIIIQDCMWSGFSAAAKLVSEKLASYQAARKDSGSPN
B1: the binding result is “binds”.
